The values that follow come from the nanobody polyreactivity screen of Harvey et al. (2022).

This data set can be described thus: yeast display, Sf9 membrane polyspecificity reagent, FACS + sequencing; frameworks hold sequencing errors. Put shortly: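 In a synthetic yeast display library (Saccharomyces cerevisiae BJ5465), nanobody expression was induced with galactose for 36–48 hours. FACS gates were set low and high (top ~1%) using anti-HA fluorescence for expression and streptavidin fluorescence for binding of the Sf9 membrane reagent. Each polyreactivity label is drawn from the gate of origin.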
With “QVQLVESGGGLVQAGGSLRLSCAASGSIFQYNAMGWYRQAPGKERELVAAINGGGSTYYADSVKGRFTISRDNAKNTVYLQMNSLKPEDTAVYYCAADGGAYSYRGPGKFGIEDSWGQGTQVTVSS”, the “polyreactivity (PSR sort gate)” value is on record as “low polyreactivity”. Then “QVQLVESGGGLVQAGGSLRLSCAASGSIFQYNVMGRYRQEPGKEREFVADISSSGGSTYYADSVKGRFTISRDNAKNTVYLQMNSLKPEATAVYYCNARSKVAYDRHYYWGQGTQVTVSS”, with “low polyreactivity”. Take “QVQLVESGGGLVQAGGSLRLSCAASGSIFQYVYAMGWYRQAPGKERELVATITWSGGTTYYADSVKGRFTISRDNAKNTVYLQMHSLKPEDTADYYCAAESIYYPVAQYYYSFEYWGQGTQVTVSS”: the “polyreactivity (PSR sort gate)” value was “low polyreactivity”.

Take “QVQLVESGGGLVQAGGSLRLSCAASGSIFQYYAMGWYRQAPGKERELVAAISSAGSTKYADSVKGRFTISRDNAKNTVYLQMNSLKPEDTAVYYCAARDPSRHARRAYDYWGQGTQVTVSS”: the “polyreactivity (PSR sort gate)” value is “low polyreactivity”. In the case of “QVQLVESGGGLVQAGGSLRLSCAASGSIFQYYAMGWYRQAPGKERELVAVISFSDGSTYYADSVKGRFTISRDNAKNTVYLQMNSLKPEDTAVYYCARRRFSVSRRSYYWGQGTQVTVSS”, the “polyreactivity (PSR sort gate)” value is “high polyreactivity”. Then “QVQLVESGGGLVQAGGSLRLSCAASGSIFRAYAMGWSRQAPGKERELVAAISIGGRTYYADSVKGRFTISRDNAKNTVYLQMNSLKPEDTAVYYCAAVRSYVKGGMYYWGQGTQVTVSS”, with “low polyreactivity”.

Regarding “QVQLVESGGGLVQAGGSLRLSCAASGSIFRAYVMGWYRQAPGTERELVAAISRGGSTNYADSVKGRFTISRDNAKNTVFLQMNSLKPEDTAVYYCNAGRGLREDDYWGQGTQVTVSS”, the “polyreactivity (PSR sort gate)” value was “low polyreactivity”.

Consider “QVQLVESGGGLVQAGGSLRLSCAASGSIFRDNVMGWYRQAPGKERELVAAITQRGGSTYYADSVKGRFTISRDNAKNTVYVQMNSLKPEDTAVYYCNARRYVLRYNRFYYWGQGTEVTVSS”, for which the “polyreactivity (PSR sort gate)” value was “high polyreactivity”. Then “QVQLVESGGGLVQAGGSLRLSCAASGSIFRFNAMGWNRPAPGKERELVAAITSSGGSTYYADSVKGRFTISRDNAKNTVYLQMNSLKPEDTAVYYCAKRWLYPISYDYWGQGTQVTVSS”, with “high polyreactivity”; and “QVQLVESGGGLVQAGGSLRLSCAASGSIFRFNAMGWYRQAPGKEREFVAAISSGGRTYYADSVKGRFTISRDNAKNTVYGQRNSLKPDDPAVYYCAALWHRRGSWFRQTGSGYDYWGQGTQVTVSS”, with “high polyreactivity”.

As to “QVQLVESGGGLVQAGGSLRLSCAASGSIFRFNAMGWYRQAPGKERELVAAISASGGSTYYADSVKGRFTISRDNAKNTVYLQMNSLKPEDTAVYYCAARRTAGAYYGYNYWGQGTQVTVSS”, the “polyreactivity (PSR sort gate)” value is recorded as “high polyreactivity”. The result for “QVQLVESGGGLVQAGGSLRLSCAASGSIFRFYAMGWYRQAPGKEGELVAAITSGGSTNYADSVKGRFTISRDNAKNTVYLQMNSLKPEDTAVSYCAAVVVYFFIYDYWGQGTQVTVSS” reads “low polyreactivity”. The result for “QVQLVESGGGLVQAGGSLRLSCAASGSIFRFYAMGWYRQAPGKERELVAAITSGGSTNYADSVKGRFTISRDNAKNTVYLQMNSLKPEDTAVYYCAAELVYFFIYDYWGKGTQVTVSS” reads “low polyreactivity”. The result for “QVQLVESGGGLVQAGGSLRLSCAASGSIFRFYAMGWYRQAPGKERELVAGISRRGGTTYYADSVKGRFTISRDNAKNTVYLQMNSLKPEDTAVYYCAKRSFGYKSRPAFNYWGQGTQVTVSS” reads “high polyreactivity”; that for “QVQLVESGGGLVQAGGSLRLSCAASGSIFRGNAMGCYRQAPWKARELVAGINRAGSTKYADSVKGRFTISRDNAKNTVYVQMISLKQEDTEVYYCAAVRYERGLWSDYWGQGTQVTVSS”, “high polyreactivity”.

With “QVQLVESGGGLVQAGGSLRLSCAASGSIFRGNAMGWYRQAPGKERELVASISYSGGSTYYADSVKGRFTISRDTAKNTVYLQMNSLKPEDTAVYYCAADESVAYPYSGYQYYRHIYDYWGQGTQVTVSS”, the “polyreactivity (PSR sort gate)” value was “low polyreactivity”. The result for “QVQLVESGGGLVQAGGSLRLSCAASGSIFRGYAMGWYRPAPGKERELVAAISWSAGSTYYADSVKGRFTISRDNAKNTVYLQMNSLKPEDTAVYYCAARSPRRKGMDYWGQGTQVTVSS” reads “high polyreactivity”; that for “QVQLVESGGGLVQAGGSLRLSCAASGSIFRGYAMGWYRQAPGKERELVAAITSSGARTFYADSVKGRFTISRDNAKNTVYFLMKSLRPEDTAVYYCDAVSANQDFDSWGQGTQVSVSS”, “high polyreactivity”. For the sequence “QVQLVESGGGLVQAGGSLRLSCAASGSIFRGYAMGWYRQAPGKERELVAVITSGGSTDYADSVKGRFTISRDNAKNTVYLQMNSLKPEDTAVYYCAALPGGYYDRGEYDYWGQGTQVTVSS”, the “polyreactivity (PSR sort gate)” value is given as “low polyreactivity”. Regarding “QVQLVESGGGLVQAGGSLRLSCAASGSIFRGYTMGWYRQAPGKERELVAAISRSGGSTYYADSVKGRFTISRDNAKNTVYLQMNSLKPEDTAVYYCNVVYFVTTSAGYDYWGQGTQVTVSS”, the “polyreactivity (PSR sort gate)” value is “high polyreactivity”. The result for “QVQLVESGGGLVQAGGSLRLSCAASGSIFRGYTMGWYRQAPGKERELVAAISWSGGSTYYADSVKGRFTISRDNAKNTVYLQMNSLKPEDTAVYDCAAGDYYHRIFLWYDYWGQGTQVTVSS” reads “low polyreactivity”. The result for “QVQLVESGGGLVQAGGSLRLSCAASGSIFRGYTMGWYRQAPGKERELVATISWSGGSTYYADTVKGRFTISRDNAKNTVYLQMNSLKREDTAVYYCDARNQCRGYYWGEGTQVTVSS” reads “high polyreactivity”; that for “QVQLVESGGGLVQAGGSLRLSCAASGSIFRINDMGWYRQAPGKERELVAAITFSGGSTYADSVKGRFTISRDNAKNTVNLQMNSLKPEDTAVYYCNADGAYWTDYYLYDYWGQGTQVTVSS”, “low polyreactivity”. The result for “QVQLVESGGGLVQAGGSLRLSCAASGSIFRIYAMGWYRQAPGKERELVAAISWSGGSTYYADSVKGRFTISRDNANNTVYLQMNSRKPEDTAVYYCAARPRYKYSAYEYWGQGTQVTVSS” reads “high polyreactivity”; that for “QVQLVESGGGLVQAGGSLRLSCAASGSIFRKNAMGWYRQAPGKERELVAAITGTGRTTYADSVKGRFTISRDNAKNTVYLQMNSLKPEDTAVYYCATSYHRRYDYWGQGTQVTVSS”, “low polyreactivity”. On to “QVQLVESGGGLVQAGGSLRLSCAASGSIFRKYPMGWYRQAPGKDTELVAAISKRGGSTYYADSVKGRFTISRDNAKNTVYLQMNSLKPEDTAVYYFNALRRYVSVRPTKSDYWGQGTQVTVSS”, for which the “polyreactivity (PSR sort gate)” value is “high polyreactivity”.

For the sequence “QVQLVESGGGLVQAGGSLRLSCAASGSIFRKYTMGWYKQAPGKERELVAAISGTAGRTYYADSVKGRFTISRDNAKNTVYLKMNSLKPEDTAVYYCAALRFGGYGYNYWGQGTQVTVSS”, the “polyreactivity (PSR sort gate)” value is “high polyreactivity”. Then “QVQLVESGGGLVQAGGSLRLSCAASGSIFRKYVMGWYRQAPGKERELVAVISSGTGTYYADSVKGRFTISRDNAKYTVYLQMNSLKPEDTAVYYCSSKYFGKWYKYYYWGQGTQVTVSS”, with “high polyreactivity”; and “QVQLVESGGGLVQAGGSLRLSCAASGSIFRLYAMGWYRQAPGKERELVAAISWTVGRTYYADSVKGRFTISRDNAKNTVYVQMNSLKPEDTAVYYCAAEKRILANWRRFDYWGQGTQVTVSS”, with “low polyreactivity”. The result for “QVQLVESGGGLVQAGGSLRLSCAASGSIFRLYVMGWYRQAPGKERELVATITRSGGNTYYADSVKGRFTISRDNAKNTVYLQMNSLKPEDTAVYYCAAQSAKSGFYPYNRYDYWGQGTQVTVSS” reads “low polyreactivity”; that for “QVQLVESGGGLVQAGGSLRLSCAASGSIFRNYAMGWYRQAPGKERELVAAISRTTRTYYADSVKGRFTISRDNAKNTVYLQMNSLKPEDTAVYYCAADYVYAGFWLYYWGQGTQVTVSS”, “high polyreactivity”. Take “QVQLVESGGGLVQAGGSLRLSCAASGSIFRNYAMGWYRQAPGKERELVARISYSGGRTHYADSVKGRFTISRDNAKNTVYFQMNSLNPEDTAVYYCAAPFHFTHFQGNYYWGQGTQVTVSS”: the “polyreactivity (PSR sort gate)” value was “low polyreactivity”.

For “QVQLVESGGGLVQAGGSLRLSCAASGSIFRPNAMGWYRQAPGKEREFVASISGRVGSTYYADSVKGRFTISRDNAKNTVYLQMYSLKPEDTAVYYCAADSRGGYKRNYWGQGTQVTVSS”, the “polyreactivity (PSR sort gate)” value is listed as “high polyreactivity”. Then “QVQLVESGGGLVQAGGSLRLSCAASGSIFRPNAMGWYRQAPGKERELVAAITFRGSRTYYADSVKGRFTISRDNAKNPVYLQMNSMKPEDTAVYYCNRLAGQDQEFEYWGQGTQVTVSS”, with “high polyreactivity”; and “QVQLVESGGGLVQAGGSLRLSCAASGSIFRPNAMGWYRQPPGKERELVALITRGGSTNYADSVKGRFTISRDNAKNTVYLQMNSLKPEDTAVYYCAVDLWYPPVWVRVSEFDYWGQGTQVTVSS”, with “low polyreactivity”.

For the sequence “QVQLVESGGGLVQAGGSLRLSCAASGSIFRPYAMGWYRQAPGKEREFVASISWRGGSTYADSVKGRFTISRDNAKNTVYLQMNSLKPEDTAVYYCAAKFWRYRYYEYDYWGQGTQVTVSS”, the “polyreactivity (PSR sort gate)” value is on record as “high polyreactivity”. In the case of “QVQLVESGGGLVQAGGSLRLSCAASGSIFRPYAMGWYRQAPGKERELVAAIRGGGTYYADSVKGRFTISRDNAKNTVYLQMNSLKPEDTAVYYCAQYRYSYYYWGQGTQVTVSS”, the “polyreactivity (PSR sort gate)” value is “high polyreactivity”. “QVQLVESGGGLVQAGGSLRLSCAASGSIFRPYAMGWYRQAPGKERELVAAISDSGGSTYYADSVKGRFTISRDNAKNTVYLQMNSLKPEDTAVYYCNAYSVWYYLASVLEVDYWGQGTQVTVSS”: the “polyreactivity (PSR sort gate)” value was “low polyreactivity”. The result for “QVQLVESGGGLVQAGGSLRLSCAASGSIFRQYAMGWYRQAPGKERELVAAINYSGGNTYYADSVKGRFTISRDNAKNTVYLQMNSLKPEDTAVYYCAADSVRHYWWAYYYWGQGTQVTVSS” reads “low polyreactivity”; that for “QVQLVESGGGLVQAGGSLRLSCAASGSIFRQYAMGWYRQAPGKERELVAAISRGGITYYADSVKGRFTISRDNAKNTVYLQMNSLKPEDTAVYYCAARYGRGERGGFYWGQGTQVTVSS”, “high polyreactivity”; that for “QVQLVESGGGLVQAGGSLRLSCAASGSIFRQYAMGWYRQAPGKERELVATISRSGGSTYYADSVKGRFTISRDNAKNTVYLQMNSLKPEDTAVYYCAASRYKKSYREWWVGSWGQGTQVTVSS”, “high polyreactivity”.
